The text below walks through data of patent US20120178908A1 (Novo Nordisk, published 2012).

The assay deals with T1, hTLT-1.126-162 (TLT-1 stalk peptide) (human).
T1 construct: Made by solid phase peptide synthesis; not glycosylated; also called chain P of the crystal structure
T1 peptide: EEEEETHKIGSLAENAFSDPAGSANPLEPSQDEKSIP
Briefly: crystal structure of the Fab0100:hTLT-1.126-162 complex. An excerpt:
Crystallogr. 40, 658-674) of the CCP4 suite (Bailey,S. (1994) Acta Crystallogr. Sect. D-Biol. Crystallogr. 50, 760-763). […] Additional crystallographic refinements, using the REFMAC5 software program (Murshudov, G. N. et al. Acta Crystallogr. Sect. D-Biol. Crystallogr. 53, 240-255), followed by computer graphics inspection of the electron density maps, model corrections and building, using the COOT software program (Emsley, P. et al. Acta Crystallogr. Sect. D-Biol. Crystallogr. 60, 2126-2132), were applied. The procedure was cycled until no further significant improvements could be made to the model.
The crystal was allowed to soak for about 15 seconds, then flash frozen in liquid N₂ and during data collection kept at 100 K by a cryogenic N₂ gas stream. Crystallographic data were subsequently collected to 1.85 Å resolution at beam-line BL911-3 (Ursby, T. et al. (2004) AIP Conference Proceedings 705, 1241-1246) at MAX-lab, Lund, Sweden. Space group determination, integration and scaling of the data were made in the XDS software package. Cell parameters for the synchrotron data were determined to be 82.54, 65.32, 108.05 Å, 90°, 95.15° and 90°, for a, b, c, α, β and γ, respectively, and space group was determined to be C2. Rsym for intensities of the data set was calculated to be 6.7%. […]

B1: Fab0100 (anti-TLT-1 Fab) (Fab, V domains shown)
VH: EVKLLESGGGLVQPGGSLKLSCAASGFDFSRYWMTWVRQAPGKGLEWIGEINPDSSTINYNPSLKDKFIISRDNAKNTLYLQMSEVRSEDTALYYCASGVFTSWGQGTLVTVSA
VL: DVVMTQTPLSLPVSLGDQASISCRSSQSLVHRNGNTYFHWALQKPGQSPKLLIYKVSNRFSGVPDRFSGSGSGTDFTLKISRVEAEDLGVYFCSQSTHVPYTFGGGTKLEIKR
notes: also called Fab 0061 (Fab 0012-LC.C36A; VH.T60N-CH1)
B1: the binding result is on record as “binds”.
